{"source": "patent KR20200059381A", "key": {"[1]": {"target": "구제역 바이러스 혈청형 O 배양액(cal1~cal4) (Foot-and-mouth disease virus serotype O)", "assay": "sandwich ELISA, cal1, 1E58 coat 4 ug/ml, 1E58-HRP 0.2 ug/ml, 450 nm"}, "[2]": {"target": "구제역 바이러스 혈청형 O 배양액(cal1~cal4) (Foot-and-mouth disease virus serotype O)", "assay": "sandwich ELISA, cal3, 1E58 coat 4 ug/ml, 1E58-HRP 0.4 ug/ml, 450 nm"}, "[3]": {"target": "구제역 바이러스 혈청형 O 배양액(cal1~cal4) (Foot-and-mouth disease virus serotype O)", "assay": "sandwich ELISA, cal4, 1E58 coat 8 ug/ml, 1E58-HRP 0.6 ug/ml, 450 nm"}, "[4]": {"target": "구제역 바이러스 혈청형 O 배양액(cal1~cal4) (Foot-and-mouth disease virus serotype O)", "assay": "sandwich ELISA, cal2, 1E58 coat 1 ug/ml, 1E58-HRP 0.2 ug/ml, 450 nm"}, "[5]": {"target": "구제역 바이러스 혈청형 O 배양액(cal1~cal4) (Foot-and-mouth disease virus serotype O)", "assay": "sandwich ELISA, cal4, 1E58 coat 8 ug/ml, 1E58-HRP 0.4 ug/ml, 450 nm"}, "[6]": {"target": "구제역 바이러스 혈청형 O 배양액(cal1~cal4) (Foot-and-mouth disease virus serotype O)", "assay": "sandwich ELISA, cal2, 1E58 coat 2 ug/ml, 1E58-HRP 0.2 ug/ml, 450 nm"}, "[7]": {"target": "구제역 바이러스 혈청형 O 배양액(cal1~cal4) (Foot-and-mouth disease virus serotype O)", "assay": "sandwich ELISA, cal1, 1E58 coat 1 ug/ml, 1E58-HRP 0.4 ug/ml, 450 nm"}, "[8]": {"target": "구제역 바이러스 혈청형 O 배양액(cal1~cal4) (Foot-and-mouth disease virus serotype O)", "assay": "sandwich ELISA, cal1, 1E58 coat 4 ug/ml, 1E58-HRP 0.6 ug/ml, 450 nm"}, "[9]": {"target": "구제역 바이러스 혈청형 O 배양액(cal1~cal4) (Foot-and-mouth disease virus serotype O)", "assay": "sandwich ELISA, cal1, 1E58 coat 8 ug/ml, 1E58-HRP 0.6 ug/ml, 450 nm"}, "[10]": {"target": "구제역 바이러스 혈청형 O 배양액(cal1~cal4) (Foot-and-mouth disease virus serotype O)", "assay": "sandwich ELISA, cal3, 1E58 coat 4 ug/ml, 1E58-HRP 0.8 ug/ml, 450 nm"}, "[11]": {"target": "구제역 바이러스 혈청형 O 배양액(cal1~cal4) (Foot-and-mouth disease virus serotype O)", "assay": "sandwich ELISA, cal4, 1E58 coat 4 ug/ml, 1E58-HRP 0.6 ug/ml, 450 nm"}, "[12]": {"target": "구제역 바이러스 혈청형 O 배양액(cal1~cal4) (Foot-and-mouth disease virus serotype O)", "assay": "sandwich ELISA, cal2, 1E58 coat 2 ug/ml, 1E58-HRP 0.4 ug/ml, 450 nm"}, "[13]": {"target": "구제역 바이러스 혈청형 O 배양액(cal1~cal4) (Foot-and-mouth disease virus serotype O)", "assay": "sandwich ELISA, cal3, 1E58 coat 8 ug/ml, 1E58-HRP 0.8 ug/ml, 450 nm"}, "[14]": {"target": "구제역 바이러스 혈청형 O 배양액(cal1~cal4) (Foot-and-mouth disease virus serotype O)", "assay": "sandwich ELISA, cal3, 1E58 coat 8 ug/ml, 1E58-HRP 0.6 ug/ml, 450 nm"}, "[15]": {"target": "불활화 FMDV 혈청형 A (Foot-and-mouth disease virus serotype A)"}, "[16]": {"target": "불활화 FMDV 혈청형 O (Foot-and-mouth disease virus serotype O)"}, "[17]": {"target": "불활화 FMDV 혈청형 Asia1 (Foot-and-mouth disease virus serotype Asia1)"}, "[18]": {"target": "구제역 바이러스 혈청형 O 배양액(cal1~cal4) (Foot-and-mouth disease virus serotype O)", "assay": "sandwich ELISA, cal1, 1E58 coat 8 ug/ml, 1E58-HRP 0.2 ug/ml, 450 nm"}, "[19]": {"target": "구제역 바이러스 혈청형 O 배양액(cal1~cal4) (Foot-and-mouth disease virus serotype O)", "assay": "sandwich ELISA, cal1, 1E58 coat 2 ug/ml, 1E58-HRP 0.8 ug/ml, 450 nm"}, "[20]": {"target": "구제역 바이러스 혈청형 O 배양액(cal1~cal4) (Foot-and-mouth disease virus serotype O)", "assay": "sandwich ELISA, cal2, 1E58 coat 4 ug/ml, 1E58-HRP 0.8 ug/ml, 450 nm"}, "[21]": {"target": "구제역 바이러스 혈청형 O 배양액(cal1~cal4) (Foot-and-mouth disease virus serotype O)", "assay": "sandwich ELISA, cal3, 1E58 coat 2 ug/ml, 1E58-HRP 0.2 ug/ml, 450 nm"}, "[22]": {"target": "구제역 바이러스 혈청형 O 배양액(cal1~cal4) (Foot-and-mouth disease virus serotype O)", "assay": "sandwich ELISA, cal3, 1E58 coat 2 ug/ml, 1E58-HRP 0.8 ug/ml, 450 nm"}, "[23]": {"target": "구제역 바이러스 혈청형 O 배양액(cal1~cal4) (Foot-and-mouth disease virus serotype O)", "assay": "sandwich ELISA, cal2, 1E58 coat 2 ug/ml, 1E58-HRP 0.6 ug/ml, 450 nm"}, "[24]": {"target": "불활화 FMDV 혈청형 O (Foot-and-mouth disease virus serotype O)", "remark": "listed apart in the source"}, "[25]": {"target": "구제역 바이러스 혈청형 O 배양액(cal1~cal4) (Foot-and-mouth disease virus serotype O)", "assay": "sandwich ELISA, cal2, 1E58 coat 1 ug/ml, 1E58-HRP 0.8 ug/ml, 450 nm"}, "[26]": {"target": "구제역 바이러스 혈청형 O 배양액(cal1~cal4) (Foot-and-mouth disease virus serotype O)", "assay": "sandwich ELISA, cal1, 1E58 coat 8 ug/ml, 1E58-HRP 0.4 ug/ml, 450 nm"}, "[27]": {"target": "구제역 바이러스 혈청형 O 배양액(cal1~cal4) (Foot-and-mouth disease virus serotype O)", "assay": "sandwich ELISA, cal4, 1E58 coat 4 ug/ml, 1E58-HRP 0.4 ug/ml, 450 nm"}, "[28]": {"target": "구제역 바이러스 혈청형 O 배양액(cal1~cal4) (Foot-and-mouth disease virus serotype O)", "assay": "sandwich ELISA, cal4, 1E58 coat 1 ug/ml, 1E58-HRP 0.8 ug/ml, 450 nm"}, "[29]": {"target": "구제역 바이러스 혈청형 O 배양액(cal1~cal4) (Foot-and-mouth disease virus serotype O)", "assay": "sandwich ELISA, cal2, 1E58 coat 8 ug/ml, 1E58-HRP 0.6 ug/ml, 450 nm"}, "[30]": {"target": "구제역 바이러스 혈청형 O 배양액(cal1~cal4) (Foot-and-mouth disease virus serotype O)", "assay": "sandwich ELISA, cal4, 1E58 coat 4 ug/ml, 1E58-HRP 0.2 ug/ml, 450 nm"}}}
{"binder": "단클론항체 1E58 (antibody, V domains shown) VH: EFQLQQSRPELAKPGASVKISCKTSGHTFTTYTMHWVKQSHVKSLEWIGCFNPNNGGATYNQKFKGKATLTMDKSSNTAYVEVRSLTSDDSAVYYCAYGNYVNFDYWGQGTTLTVSS VL: DIVLTQSPASLAVSLGQRATISYRASKSVSTSGYSYMHWNQQKPGQPPRLLIYLVSNLESGVPARFSGSGSGTDFTLNIHPVEEEDAATYYCQHIRELTRSEGGPSWKN", "values": [{"measurement": "O.D", "setting": "[1]", "value": 3.47, "unit": "O.D"}, {"measurement": "O.D", "setting": "[2]", "value": 1.78, "unit": "O.D"}, {"measurement": "O.D", "setting": "[3]", "value": 0.62, "unit": "O.D"}, {"measurement": "O.D", "setting": "[4]", "value": 1.06, "unit": "O.D"}, {"measurement": "O.D", "setting": "[5]", "value": 0.39, "unit": "O.D"}, {"measurement": "O.D", "setting": "[6]", "value": 1.8, "unit": "O.D"}, {"measurement": "O.D", "setting": "[7]", "value": 2.43, "unit": "O.D"}, {"measurement": "O.D", "setting": "[8]", "value": 4, "unit": "O.D"}, {"measurement": "O.D", "setting": "[9]", "value": 3.27, "unit": "O.D"}, {"measurement": "O.D", "setting": "[10]", "value": 2.65, "unit": "O.D"}, {"measurement": "O.D", "setting": "[11]", "value": 1.11, "unit": "O.D"}, {"measurement": "O.D", "setting": "[12]", "value": 2.49, "unit": "O.D"}, {"measurement": "O.D", "setting": "[13]", "value": 1.31, "unit": "O.D"}, {"measurement": "O.D", "setting": "[14]", "value": 1.13, "unit": "O.D"}, {"measurement": "ELISA screening plate (O.D)", "setting": "[15]", "value": 2.13, "unit": "O.D"}, {"measurement": "ELISA screening plate (O.D)", "setting": "[16]", "value": 2.02, "unit": "O.D"}, {"measurement": "ELISA screening plate (O.D)", "setting": "[17]", "value": 1.93, "unit": "O.D"}, {"measurement": "O.D", "setting": "[18]", "value": 2.35, "unit": "O.D"}, {"measurement": "O.D", "setting": "[19]", "value": 4, "unit": "O.D"}, {"measurement": "O.D", "setting": "[20]", "value": 3.75, "unit": "O.D"}, {"measurement": "O.D", "setting": "[21]", "value": 0.98, "unit": "O.D"}, {"measurement": "O.D", "setting": "[22]", "value": 2.08, "unit": "O.D"}, {"measurement": "O.D", "setting": "[23]", "value": 3.42, "unit": "O.D"}, {"measurement": "O.D (450nm)", "setting": "[24]", "value": 1.09, "unit": "O.D"}, {"measurement": "O.D", "setting": "[25]", "value": 1.97, "unit": "O.D"}, {"measurement": "O.D", "setting": "[26]", "value": 3.18, "unit": "O.D"}, {"measurement": "O.D", "setting": "[27]", "value": 0.88, "unit": "O.D"}, {"measurement": "O.D", "setting": "[28]", "value": 1.07, "unit": "O.D"}, {"measurement": "O.D", "setting": "[29]", "value": 1.84, "unit": "O.D"}, {"measurement": "O.D", "setting": "[30]", "value": 0.63, "unit": "O.D"}]}
